From the supplement of paper PMC11246515
± gives the standard deviation of the averaged measurements.

Test: total protein half-life in vivo (active degradation + dilution); higher = more stable protein
[1] = E. coli NCM3722 delta-clpP delta-lon delta-hslV, growth: N-lim chemostat, doubling time 6 h
[2] = wild type E. coli NCM3722, growth: C-lim chemostat, doubling time 3 h
[3] = wild type E. coli NCM3722, growth: C-lim chemostat, doubling time 6 h
[4] = wild type E. coli NCM3722, growth: C-lim chemostat, doubling time 12 h
[5] = E. coli NCM3722 delta-clpP, growth: N-lim chemostat, doubling time 6 h
[6] = E. coli NCM3722 delta-hslV, growth: N-lim chemostat, doubling time 6 h
[7] = E. coli NCM3722 delta-lon, growth: N-lim chemostat, doubling time 6 h
[8] = E. coli NCM3722 delta-smpB, growth: N-lim chemostat, doubling time 6 h
[9] = wild type E. coli NCM3722, growth: N-lim chemostat, doubling time 6 h
[10] = wild type E. coli NCM3722, growth: N-lim chemostat, doubling time 12 h
[11] = wild type E. coli NCM3722, growth: P-lim chemostat, doubling time 6 h
[12] = wild type E. coli NCM3722, growth: P-lim chemostat, doubling time 12 h

MLILKNVTAVQLHPAKVQEGVDIAIENDVIVAIGDALTQRYPDASFKEMHGRIVMPGIVCSHNHFYSGLSRGIMANIAPCPDFISTLKNLWWRLDRALDEESLYYSGLICSLEAIKSGCTSVIDHHASPAYIGGSLSTLRDAFLKVGLRAMTCFETTDRNNGIKELQEGVEENIRFARLIDEAKKATSEPYLVEAHIGAHAPFTVPDAGLEMLREAVKATGRGLHIHAAEDLYDVSYSHHWYGKDLLARLAQFDLIDSKTLVAHGLYLSKDDITLLNQRDAFLVHNARSNMNNHVGYNHHLSDIRNLALGTDGIGSDMFEEMKFAFFKHRDAGGPLWPDSFAKALTNGNELMSRNFGAKFGLLEAGYKADLTICDYNSPTPLLADNIAGHIAFGMGSGSVHSVMVNGVMVYEDRQFNFDCDSIYAQARKAAASMWRRMDALA
total protein half-life in vivo [1]: 3.15 h
total protein half-life in vivo [2]: 2.62 h
total protein half-life in vivo [3]: 4.3 h
total protein half-life in vivo [4]: 11.2 h

MLKARNCGWIRLLPLFMLSLPVQAELRCVANAVDIESFFSAATAEDKQQVEQAINSSVNLVPFGLSASNWKVHRGDLVVEGNIESNQKLIVLGNLTVKGNISTFSLSNPWVILGNVTATNIVADSPLLITGSINASGLVFIDSYYDNPSTIKGSINARGIFINDIIAPVVASSTNSEFMVRASDKHDTENVKKALMIINPDAYYWGLINDEDALKEIFKRSNIRMAGNVCNQMKKEALFRPKPSPELVQELQMLDEGKVAAFEGRDIATFDLAVMRTLPRLKGISANLRKQLINSNDEQTIESMARYMPDNEILELTDQQLGYQPVVLGLLDREPLSVEIMTRMSRLPDGVGPLNLALRENLPLDIVMTLAKRDWDMIIQELYKDAWLLPESIIDGYIRSDDSSIRQVGAGGQLTYNQAMQLANDSSNNVVTSLAFKLAEMKHHGQLLRMTPQESDKVAGYLYQKFENDDDLIRVLFLALPDNLQFNFVKRMEKKSPAYFCCRDMQVIHSDAALQRLLTRFNDPEGWSNLAKNQYLSTSMKQKIWQRALSHRKNNPKADSDAYETSADMILSELISHGEVDDQMLLNATALIRSDDWDFLESALISWDNLPAVVLKELQQNTPRNDIWAKFFLRQENSSRAQVDEALRVYYALDPDALAQLDVLAKQPDRIWWSTLAKSNLTFFKFGALNNRHTPPAVLAAEIDPEWWIVAMNNPRFPVDVLKARLKRDPLLALELVNPELDLVRQLALNGKTRAIREQAMRKLDELY
total protein half-life in vivo [1]: > 8 h

MLKKCLPLLLLCTAPVFAKPVLTVYTYDSFAADWGPGPVVKKAFEADCNCELKLVALEDGVSLLNRLRMEGKNSKADVVLGLDNNLLDAASKTGLFAKSGVAADAVNVPGGWNNDTFVPFDYGYFAFVYDKNKLKNPPQSLKELVESDQNWRVIYQDPRTSTPGLGLLLWMQKVYGDDAPQAWQKLAKKTVTVTKGWSEAYGLFLKGESDLVLSYTTSPAYHILEEKKDNYAAANFSEGHYLQVEVAARTAASKQPELAQKFLQFMVSPAFQNAIPTGNWMYPVANVTLPAGFEKLTKPATTLEFTPAEVAAQRQAWISEWQRAVSR
total protein half-life in vivo [1]: 4.4 ± 0.16 h
total protein half-life in vivo [5]: 5.26 ± 0.44 h
total protein half-life in vivo [6]: 6.48 ± 0.38 h
total protein half-life in vivo [7]: 5.82 ± 0.072 h
total protein half-life in vivo [8]: 6.33 ± 0.42 h
total protein half-life in vivo [2]: 3.19 ± 0.21 h
total protein half-life in vivo [3]: 6.11 ± 0.24 h
total protein half-life in vivo [4]: 11 ± 0.89 h
total protein half-life in vivo [9]: 6.3 ± 0.13 h
total protein half-life in vivo [10]: 14 ± 2.2 h
total protein half-life in vivo [11]: 5.65 ± 0.23 h
total protein half-life in vivo [12]: 12.9 ± 0.7 h

MLKKILLLALLPAIAFAEELPAPVKAIEKQGITIIKTFDAPGGMKGYLGKYQDMGVTIYLTPDGKHAISGYMYNEKGENLSNTLIEKEIYAPAGREMWQRMEQSHWLLDGKKDAPVIVYVFADPFCPYCKQFWQQARPWVDSGKVQLRTLLVGVIKPESPATAAAILASKDPAKTWQQYEASGGKLKLNVPANVSTEQMKVLSDNEKLMDDLGANVTPAIYYMSKENTLQQAVGLPDQKTLNIIMGNK
total protein half-life in vivo [1]: 5.17 ± 0.63 h
total protein half-life in vivo [5]: 5.5 ± 0.14 h
total protein half-life in vivo [6]: 6.05 ± 0.24 h
total protein half-life in vivo [7]: 6.69 ± 1 h
total protein half-life in vivo [8]: 5.98 ± 0.33 h
total protein half-life in vivo [2]: 3.016 ± 0.006 h
total protein half-life in vivo [3]: 6.29 ± 0.74 h
total protein half-life in vivo [4]: 11.3 ± 1.4 h
total protein half-life in vivo [9]: 6.16 ± 0.33 h
total protein half-life in vivo [10]: 12.6 ± 0.62 h
total protein half-life in vivo [11]: 5.78 ± 0.55 h
total protein half-life in vivo [12]: 12.5 ± 0.27 h

MLKPDNLPVTFGKNDVEIIARETLYRGFFSLDLYRFRHRLFNGQMSHEVRREIFERGHAAVLLPFDPVRDEVVLIEQIRIAAYDTSETPWLLEMVAGMIEEGESVEDVARREAIEEAGLIVKRTKPVLSFLASPGGTSERSSIMVGEVDATTASGIHGLADENEDIRVHVVSREQAYQWVEEGKIDNAASVIALQWLQLHHQALKNEWA [Q93K97]
total protein half-life in vivo [5]: 4.47 ± 0.8 h
total protein half-life in vivo [6]: 4.6 ± 0.65 h
total protein half-life in vivo [7]: 4.759 ± 0.044 h
total protein half-life in vivo [8]: 4.63 ± 0.46 h
total protein half-life in vivo [2]: 3.05 ± 0.36 h
total protein half-life in vivo [3]: 5.79 ± 0.16 h
total protein half-life in vivo [4]: 11 ± 0.82 h
total protein half-life in vivo [9]: 4.23 ± 0.34 h
total protein half-life in vivo [10]: 7.1411 ± 0.0014 h
total protein half-life in vivo [11]: 5.98 ± 0.42 h
total protein half-life in vivo [12]: 12.9 ± 0.41 h

MLKPEMIEKLNEQMNLELYSSLLYQQMSAWCSYHTFEGAAAFLRRHAQEEMTHMQRLFDYLTDTGNLPRINTVESPFAEYSSLDELFQETYKHEQLITQKINELAHAAMTNQDYPTFNFLQWYVSEQHEEEKLFKSIIDKLSLAGKSGEGLYFIDKELSTLDTQN [P0A998]
total protein half-life in vivo [1]: 5.44 ± 1.7 h
total protein half-life in vivo [5]: 3.41 ± 0.55 h
total protein half-life in vivo [6]: 3.94 ± 1.3 h
total protein half-life in vivo [7]: 4.12 ± 0.86 h
total protein half-life in vivo [8]: 3.38 ± 1.6 h
total protein half-life in vivo [3]: 5.8 ± 0.56 h
total protein half-life in vivo [9]: 3.33 ± 0.25 h
total protein half-life in vivo [10]: 4.479 ± 0.025 h
total protein half-life in vivo [11]: 4.92 ± 0.45 h
total protein half-life in vivo [12]: 10.6 ± 0.44 h

MLKRKKVKPITLRDVTIIDDGKLRKAITAASLGNAMEWFDFGVYGFVAYALGKVFFPGADPSVQMVAALATFSVPFLIRPLGGLFFGMLGDKYGRQKILAITIVIMSISTFCIGLIPSYDTIGIWAPILLLICKMAQGFSVGGEYTGASIFVAEYSPDRKRGFMGSWLDFGSIAGFVLGAGVVVLISTIVGEANFLDWGWRIPFFIALPLGIIGLYLRHALEETPAFQQHVDKLEQGDREGLQDGPKVSFKEIATKYWRSLLTCIGLVIATNVTYYMLLTYMPSYLSHNLHYSEDHGVLIIIAIMIGMLFVQPVMGLLSDRFGRRPFVLLGSVALFVLAIPAFILINSNVIGLIFAGLLMLAVILNCFTGVMASTLPAMFPTHIRYSALAAAFNISVLVAGLTPTLAAWLVESSQNLMMPAYYLMVVAVVGLITGVTMKETANRPLKGATPAASDIQEAKEILVEHYDNIEQKIDDIDHEIADLQAKRTRLVQQHPRIDE [P0C0L7]
total protein half-life in vivo [1]: 5.246 ± 0.018 h
total protein half-life in vivo [5]: 4.97 ± 0.25 h
total protein half-life in vivo [6]: 4.59 ± 0.35 h
total protein half-life in vivo [7]: 4.34 ± 0.14 h
total protein half-life in vivo [8]: 5.04 ± 0.79 h
total protein half-life in vivo [3]: 4.62 ± 0.43 h
total protein half-life in vivo [4]: 7.56 ± 3.2 h
total protein half-life in vivo [9]: 4.46 ± 0.41 h
total protein half-life in vivo [10]: 10.4 ± 2.3 h
total protein half-life in vivo [11]: 4.78 ± 0.066 h
total protein half-life in vivo [12]: 7.9 ± 0.16 h

MLKTISPLISPELLKVLAEMGHGDEIIFSDAHFPAHSMGPQVIRADGLLVSDLLQAIIPLFELDSYAPPLVMMAAVEGDTLDPEVERRYRNALSLQAPCPDIIRINRFAFYERAQKAFAIVITGERAKYGNILLKKGVTP [P0AEN8]
total protein half-life in vivo [1]: 6.09 ± 0.27 h
total protein half-life in vivo [5]: 6.25 ± 0.67 h
total protein half-life in vivo [6]: 6.67 ± 1.6 h
total protein half-life in vivo [8]: 5.51 ± 0.094 h
total protein half-life in vivo [2]: 3.05 ± 0.092 h
total protein half-life in vivo [3]: 6.7 ± 0.48 h
total protein half-life in vivo [4]: 13.2 ± 0.83 h
total protein half-life in vivo [9]: 5.36 ± 0.38 h
total protein half-life in vivo [10]: 10.4 ± 1.1 h
total protein half-life in vivo [11]: 5.89 ± 0.63 h
total protein half-life in vivo [12]: 12.3 ± 0.71 h
